In US20230151373A1, “CHIMERIC POLYPEPTIDE FOR REGULATING IMMUNE CELLS” (STICHTING HET NEDERLANDS KANKER INSTITUUT-ANTONI VAN …, priority 2019, published 2023):

Target: CD3 ζ chain (phosphorylated ITAMs) of the TCR complex (human) (UniProt P20963)
Test: cell-based or functional assay

CD3 ζ chain (phosphorylated ITAMs) of the TCR complex (human), sequence (P20963 22-164, one chain of several): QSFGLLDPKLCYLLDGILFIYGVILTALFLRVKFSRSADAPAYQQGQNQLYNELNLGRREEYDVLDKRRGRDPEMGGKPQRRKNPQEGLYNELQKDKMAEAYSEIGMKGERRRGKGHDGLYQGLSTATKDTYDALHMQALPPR

reduction in percentage responding cells (IFNγ), CDK4 TCR T cells co-cultured with 10 nM peptide loaded T2 cells, relative to vector control: 104 fold
reduction in percentage responding cells (IL-2), CDK4 TCR T cells co-cultured with 10 nM peptide loaded T2 cells, relative to vector control: 110 fold
reduction in percentage responding cells (TNFα), CDK4 TCR T cells co-cultured with 10 nM peptide loaded T2 cells, relative to vector control: 81 fold
reduction in percentage responding cells (cell surface LAMP1), CDK4 TCR T cells co-cultured with 10 nM peptide loaded T2 cells, relative to vector control: 40 fold
Substance: Zap70 2×SH2 domains-PD1 tail fusion protein (from UniProt P43403 1-264; Q15116 192-288)
